# Residue numbers refer to the chain shown, from its start.
# T1: human CD32b expressed on cells (human, UniProt P31994 43-310)
# T1 construct: also called SupT1-CD32b; CHO-CD32b
# T1 sequence: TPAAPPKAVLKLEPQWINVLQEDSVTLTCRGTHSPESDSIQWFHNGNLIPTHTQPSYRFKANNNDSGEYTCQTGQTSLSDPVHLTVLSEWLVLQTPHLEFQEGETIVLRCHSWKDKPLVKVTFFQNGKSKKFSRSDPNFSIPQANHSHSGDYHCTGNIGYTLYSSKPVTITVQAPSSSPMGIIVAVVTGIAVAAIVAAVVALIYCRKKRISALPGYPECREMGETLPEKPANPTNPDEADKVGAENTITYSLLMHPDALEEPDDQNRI
# T2: recombinant human CD32b protein, biotinylated (human, UniProt P31994 43-217)
# T2 construct: also called CD32b-His; recombinant CD32b protein
# T2 sequence: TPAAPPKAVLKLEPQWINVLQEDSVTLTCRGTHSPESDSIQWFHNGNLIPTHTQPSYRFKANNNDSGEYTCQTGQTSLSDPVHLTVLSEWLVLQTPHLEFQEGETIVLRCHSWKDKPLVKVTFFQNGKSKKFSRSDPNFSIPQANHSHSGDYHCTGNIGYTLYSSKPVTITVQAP
# B1: DARPin 53.A8 (designed binder)
# chain: DLGKKLLEATRAGQDDEVRILMANGANVNATDEEGLTPLHLAALDGHLEIVEVLLKYGADVNADDMHGPTPLHLAAYAGHLEIVEVLLKYGADVNAYDCGGHTPLHLAARLGHLEIVEVLLKYGADVNAQDKFGKTPFDLAIDNGNEDIAEVLQKAA
# B2: DARPin 53.D11 (designed binder)
# chain: DLGKKLLEAARAGQDDEVRILMANGADVNATDITGATPLHLAAMWGHLEIVEVLLKYGADVNAQDYEGYTTLHLAAMWGHLEIVEVLLKYGADVNAHDVAGHTPLHLATHFGHLEIVEVLLKHGADVNAQDKFGKTPFDLAIDNGNEDIAEVLQKAA
# B3: DARPin 53.A10 (designed binder)
# chain: DLGKKLLEAARAGQDDEVRILMSNGADVNAWDKEGVTPLHLAAVHGHLEIVEVLLKHGADVNAQDDVGMTPLHLAAHWGHLEIVEVLLKYGADVNAQDYAGMTPLHLAAFQGHLEIVEVLLKHGADVNAQDKFGKTPFDLAIDNGNEDIAQVLQKAA
# B4: DARPin 53.G1 (designed binder)
# chain: B3 chain with A10T, Q151E
# B5: DARPin 53.2.C8 (designed binder)
# chain: DLGKKLLEAARAGQDDAVRILMANGADANAYDHMGETPLHLAAMEGHLEIVEVLLKHGADVNADDWDGQTPLHLAAHWGHLEIVEVLLKYGADVKEQDVVGYTPLHLAAWIGHLEIVEVLLKNGADVNAQDKFGKTPFDLAIDNGNEDIAEVLQKAA
# B6: DARPin 53.A11 (designed binder)
# chain: DLGKKLLEATRAGQDDEVRILMANGADVNATDEEGLTPLHLAALIGHLEIVEVLLKYGADVNAADMDGTTPLHLAAQEGHLEIVEVLLKYGADVNADDFWGHTPLHLAAWFGHLEIVEVLLKHGADVNAQDKFGKTPFDLAIDNGNEDIAEVLQKAA
# notes: also called 53.C9; 53.F7
# B7: DARPin 53.2.B6 (designed binder)
# chain: B6 chain with L81Q, T136I
# B8: DARPin 53.2.D6 (designed binder)
# chain: B6 chain with E8D, T10A, R11S
# B9: DARPin 53.2.E10 (designed binder)
# chain: B6 chain with A30T
# B10: DARPin 53.2.H4 (designed binder)
# chain: B6 chain with A30T, E118D, K122A, H123N, G124V, Q130N, D131S, K132A, F133Q, G134S
# B11: DARPin 53.2.H5 (designed binder)
# chain: B6 chain with G58D, A109P, K122N, I149L
# B12: DARPin 53.2.H9 (designed binder)
# chain: B6 chain with A76V, H123Y, V152A
# B13: DARPin 53.B8 (designed binder)
# chain: B6 chain with A23T, A26T, L48P, G91C, H123Y
# B14: DARPin 53.B10 (designed binder)
# chain: B6 chain with H123N
# B15: DARPin 53.D7 (designed binder)
# chain: B6 chain with T10A, H123N
# B16: DARPin 53.E11 (designed binder)
# chain: B6 chain with T10A, A59T
# B17: DARPin 53.G7 (designed binder)
# chain: B6 chain with A43V, E52D
# B18: DARPin 53.H9 (designed binder)
# chain: B6 chain with A64V, E151Q
# B19: DARPin 53.C1 (designed binder)
# chain: DLGKKLLEAARVGQDDEVRILMANGADVNATDNEGQTPLHLAAMWGHLEIVEVQLKHGADVNASDTFGSTPLHLAARFGHLEIVEVLLKYGADVNAADTEGFTPLHLAAIDGHLEIVEVLLKHGADVNAQDKFGKTPFDLAIDNGNEDIAEVLQKAA
# Molecular target: T3, neutravidin (UniProt P02701 25-152)
# T3 construct: also called neutravidin NA chip (Cytiva)
# T3 sequence (P02701 25-152): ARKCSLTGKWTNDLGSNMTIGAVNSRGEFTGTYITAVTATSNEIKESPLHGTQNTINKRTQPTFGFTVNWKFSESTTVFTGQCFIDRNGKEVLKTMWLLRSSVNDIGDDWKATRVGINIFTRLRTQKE
# Assay: SPR, Biacore T200, neutravidin NA chip
row,Binder,binding result
1,B1,no binding

# Molecular target: T1, human CD32b expressed on cells
# Assay: flow cytometry, crude E. coli extract on SupT1-CD32b cells
row,Binder,binding result
1,B2,no binding (tested: 5-25 µl of crude DARPin extracts)
2,B3,no binding (tested: 5-25 µl of crude DARPin extracts)
3,B4,no binding (tested: 5-25 µl of crude DARPin extracts)
4,B5,no binding (tested: 5-25 µl of crude DARPin extracts)
5,B1,no binding (tested: 5-25 µl of crude DARPin extracts)
6,B6,no binding (tested: 5-25 µl of crude DARPin extracts)
7,B7,no binding (tested: 5-25 µl of crude DARPin extracts)
8,B8,no binding (tested: 5-25 µl of crude DARPin extracts)
9,B9,no binding (tested: 5-25 µl of crude DARPin extracts)
10,B10,no binding (tested: 5-25 µl of crude DARPin extracts)
11,B11,no binding (tested: 5-25 µl of crude DARPin extracts)
12,B12,no binding (tested: 5-25 µl of crude DARPin extracts)
13,B13,no binding (tested: 5-25 µl of crude DARPin extracts)
14,B14,no binding (tested: 5-25 µl of crude DARPin extracts)
15,B15,no binding (tested: 5-25 µl of crude DARPin extracts)
16,B16,no binding (tested: 5-25 µl of crude DARPin extracts)
17,B17,no binding (tested: 5-25 µl of crude DARPin extracts)
18,B18,no binding (tested: 5-25 µl of crude DARPin extracts)
19,B19,no binding (tested: 5-25 µl of crude DARPin extracts)

# Molecular target: T2, recombinant human CD32b protein, …
# Assay: SPR, Biacore T200, biotinylated CD32b on neutravidin chip
row,Binder,binding result
1,B1,no binding

# Reference: patent US20250101071A1 (PAUL EHRLICH INSTITUT BUNDESINSTITUT F R IMPFSTOFFE UND …, published 2025)
